Experimental data taken from the Human Domainome abundance scans (Beltran et al. 2025).
± gives the uncertainty stated by the source.

B1: Far upstream element-binding protein 3, residues 75 to 150; numbered along this chain, Q96I24 (parent)
chain: RTVITEEFKVPDKMVGFIIGRGGEQISRIQAESGCKIQIASESSGIPERPCVLTGTPESIEQAKRLLGQIVDRCRN

Variants of: B1
Experiment: abundance fitness (aPCA) (normalised: wild type 0, dead -1); higher = more abundant; growth selection in yeast, the domain comes from the species named
Details: Homo sapiens

Variant | abundance fitness
RTVITEEFKVPDKMVGFIIGRGGEQISRIQAESGCKIQIASESSGIPERPCVLTGTPESIEDAKRLLGQIVDRCRN [Q62D] | -0.005 ± 0.04
RTVITEEFKVPDKMVGFIIGRGGEQISRIQAESGCKIQIASESSGIPERPCVLTGTPESIENAKRLLGQIVDRCRN [Q62N] | -0.041 ± 0.038
RTVITEEFKVPDKMVGFIIGRGGEQISRIQAESGCKIQIASERSGIPERPCVLTGTPESIEQAKRLLGQIVDRCRN [S43R] | -0.079 ± 0.03
RTVITEEFKVPDKMVGFIIGRGGEQISRIQAESGCKIQIASEGSGIPERPCVLTGTPESIEQAKRLLGQIVDRCRN [S43G] | -0.041 ± 0.027
RTVITEEFKVPDKMVGFIIGRGGEQISRIQAESGCKIQIASESSGIPERPCVLTGTPEFIEQAKRLLGQIVDRCRN [S59F] | -1.1 ± 0.26
RTVITEEFKVPDKMVGFIIGRGGEQISRIQAESGCKIQIASESSGIPTRPCVLTGTPESIEQAKRLLGQIVDRCRN [E48T] | -0.109 ± 0.036
RTVITEEFKVPDKMVGFIIGRGGEQISRIQAESGCKIQIASESSGIPLRPCVLTGTPESIEQAKRLLGQIVDRCRN [E48L] | -0.068 ± 0.031
RTVITEEYKVPDKMVGFIIGRGGEQISRIQAESGCKIQIASESSGIPERPCVLTGTPESIEQAKRLLGQIVDRCRN [F8Y] | -0.024 ± 0.076
RTVITEEWKVPDKMVGFIIGRGGEQISRIQAESGCKIQIASESSGIPERPCVLTGTPESIEQAKRLLGQIVDRCRN [F8W] | -0.027 ± 0.031
RTVITEEFKVPDKMVGFIIGRGGEQISRIQAESGCKIQIASESSGIPERPCVFTGTPESIEQAKRLLGQIVDRCRN [L53F] | -0.354 ± 0.084
RTVFTEEFKVPDKMVGFIIGRGGEQISRIQAESGCKIQIASESSGIPERPCVLTGTPESIEQAKRLLGQIVDRCRN [I4F] | -0.095 ± 0.049
RTVITREFKVPDKMVGFIIGRGGEQISRIQAESGCKIQIASESSGIPERPCVLTGTPESIEQAKRLLGQIVDRCRN [E6R] | -0.099 ± 0.028
RTVITEEFKVPDKMVGFIIGRGGEQISRIQAESGCKIQIASESSGIPERPCVLTGTPESIEQAKRLLGKIVDRCRN [Q69K] | -0.046 ± 0.044
RTVITEEFKVPDKMVGFIIGRGGEQISRIQAESGCKIQIASESSGIPERPCVLTGTPESIEQAKRLLGQKVDRCRN [I70K] | -0.138 ± 0.044
RTVITEEFKVPDKMLGFIIGRGGEQISRIQAESGCKIQIASESSGIPERPCVLTGTPESIEQAKRLLGQIVDRCRN [V15L] | -0.061 ± 0.03
RTVITEEFKVPVKMVGFIIGRGGEQISRIQAESGCKIQIASESSGIPERPCVLTGTPESIEQAKRLLGQIVDRCRN [D12V] | -0.137 ± 0.031
RTVITEEFKVPTKMVGFIIGRGGEQISRIQAESGCKIQIASESSGIPERPCVLTGTPESIEQAKRLLGQIVDRCRN [D12T] | -0.073 ± 0.04
RTVITEEFKVPDKMVGFIIGRGIEQISRIQAESGCKIQIASESSGIPERPCVLTGTPESIEQAKRLLGQIVDRCRN [G23I] | -0.294 ± 0.063
RTVITEEFKVPDKMVGFIIGRGGEQISRIQAESGCKIQIASESSGIPERPCVLTGTDESIEQAKRLLGQIVDRCRN [P57D] | -0.182 ± 0.055
RTVITEEFKVPDKMVGFIIGRGGEQISRIQAESGCKIQIASESSGIPERPCVLTGTFESIEQAKRLLGQIVDRCRN [P57F] | -0.103 ± 0.081
RTVITEEFKVPDKMVGFIIGRGGEQISRIQAESGCKIQIASESSGIPERPCVLTGTGESIEQAKRLLGQIVDRCRN [P57G] | -0.113 ± 0.032
RTVITEEFKVPDKMVGFIIGRGGEQISRIQAESGCKIQIASESSGIPERPCVLTGTPESIEQAKRLLGQIMDRCRN [V71M] | -0.013 ± 0.04
RTVITEEFKVPDKMVGFIIGRGGESISRIQAESGCKIQIASESSGIPERPCVLTGTPESIEQAKRLLGQIVDRCRN [Q25S] | -0.026 ± 0.034
RTVITEEFKVPDKMVGFIIGRGGETISRIQAESGCKIQIASESSGIPERPCVLTGTPESIEQAKRLLGQIVDRCRN [Q25T] | -0.133 ± 0.044

Variant | abundance fitness
RTVITEEFKVPDKMVGFIIGRGGERISRIQAESGCKIQIASESSGIPERPCVLTGTPESIEQAKRLLGQIVDRCRN [Q25R] | 0.023 ± 0.026
RTVITEEFKVPDKMVGFIIGRGGEYISRIQAESGCKIQIASESSGIPERPCVLTGTPESIEQAKRLLGQIVDRCRN [Q25Y] | -0.197 ± 0.06
RTVITEEFKVPDKMVGFIIGRGGEQISRIQAESGIKIQIASESSGIPERPCVLTGTPESIEQAKRLLGQIVDRCRN [C35I] | -0.397 ± 0.082
RTVITEEFKVPDKMVGFIIGRGGEQISRIQAESGEKIQIASESSGIPERPCVLTGTPESIEQAKRLLGQIVDRCRN [C35E] | -0.539 ± 0.044
RTVITEEFKVPDKMVGFIIGRGGEQISRIQAESGCKIQIASESSGIPERPCVLTGTPESIEQAKRLLGQIVTRCRN [D72T] | -0.1 ± 0.04
RTVITEEFKVPDKMVGFIIGRGGEQISRIQAESGCKIQIASESSGIPERPCVLTGTPESIEQAWRLLGQIVDRCRN [K64W] | -0.578 ± 0.038
RTVITEEFKVPDKMVGFIIGRGGEQISRIQAESGCKIQIASESSGIPERPCVLTGTPESIEQAQRLLGQIVDRCRN [K64Q] | -0.197 ± 0.039
RTVITEEFKVPDKMVGFIIGRGGEQISRIQAESGCKIQIASESSGIPERPCVLTGTPESIEQADRLLGQIVDRCRN [K64D] | -0.89 ± 0.071
RTVIWEEFKVPDKMVGFIIGRGGEQISRIQAESGCKIQIASESSGIPERPCVLTGTPESIEQAKRLLGQIVDRCRN [T5W] | -0.192 ± 0.037
RTVIQEEFKVPDKMVGFIIGRGGEQISRIQAESGCKIQIASESSGIPERPCVLTGTPESIEQAKRLLGQIVDRCRN [T5Q] | -0.099 ± 0.046
RTVIYEEFKVPDKMVGFIIGRGGEQISRIQAESGCKIQIASESSGIPERPCVLTGTPESIEQAKRLLGQIVDRCRN [T5Y] | -0.164 ± 0.08
RTVIGEEFKVPDKMVGFIIGRGGEQISRIQAESGCKIQIASESSGIPERPCVLTGTPESIEQAKRLLGQIVDRCRN [T5G] | -0.3 ± 0.028
RTVITEEFKVPDKMVGFIIGRGGEQISRIQAEPGCKIQIASESSGIPERPCVLTGTPESIEQAKRLLGQIVDRCRN [S33P] | -0.728 ± 0.06
RTVITEEFKVPDKMVGFIIGRGGEQISRIQAESGCKIQIASESSGIPERPCTLTGTPESIEQAKRLLGQIVDRCRN [V52T] | -0.044 ± 0.038
RTVITEEFKVPDKMVGFIIGRGGEQISRIQAESGCKIQIASESSGIPERPRVLTGTPESIEQAKRLLGQIVDRCRN [C51R] | -0.926 ± 0.042
ATVITEEFKVPDKMVGFIIGRGGEQISRIQAESGCKIQIASESSGIPERPCVLTGTPESIEQAKRLLGQIVDRCRN [R1A] | -0.077 ± 0.046
LTVITEEFKVPDKMVGFIIGRGGEQISRIQAESGCKIQIASESSGIPERPCVLTGTPESIEQAKRLLGQIVDRCRN [R1L] | -0.079 ± 0.054
ETVITEEFKVPDKMVGFIIGRGGEQISRIQAESGCKIQIASESSGIPERPCVLTGTPESIEQAKRLLGQIVDRCRN [R1E] | -0.062 ± 0.049
RTVITEEFKVPDKMVGFIIGHGGEQISRIQAESGCKIQIASESSGIPERPCVLTGTPESIEQAKRLLGQIVDRCRN [R21H] | -0.028 ± 0.053
RTVITEEFKVPDKMVGFIIGRGGEQISRIQAESGCKIQIASESSGIPERPCVLTGTPESIEQAKRLSGQIVDRCRN [L67S] | -0.811 ± 0.049
RTVITEEFKVPDKMVGFIIGRGGEQISRIQAESGCKIQIASESSGIPERPCVLTGTPESIQQAKRLLGQIVDRCRN [E61Q] | -0.018 ± 0.045
RTVITEEFKVPDKMVGFIIGRGGEQISRIQAESGCKIQIASESSGIPERPCVLTGTPESIRQAKRLLGQIVDRCRN [E61R] | -0.046 ± 0.028
RTVITEEFKVPDKMVGFIIGRGGEQISRIQAESGCKIQIASESSGIPERPCVLTGTPESIIQAKRLLGQIVDRCRN [E61I] | -0.105 ± 0.055
RTVITEEFKVPDKMVGFIIGRGGEQISRIQAESSCKIQIASESSGIPERPCVLTGTPESIEQAKRLLGQIVDRCRN [G34S] | -0.079 ± 0.043

Variant | abundance fitness
RTVITEEFKVPDKMVGFIIGRGGEQISRIQAKSGCKIQIASESSGIPERPCVLTGTPESIEQAKRLLGQIVDRCRN [E32K] | -0.054 ± 0.042
RTVITEEFKVPDKMVGFIIGRGGEQISRIQLESGCKIQIASESSGIPERPCVLTGTPESIEQAKRLLGQIVDRCRN [A31L] | -0.063 ± 0.029
RTVITEEFKVPDKMVGFIIGRGGEQISRIQAESGCKIQIASESSGIPERPCVLTGTPESCEQAKRLLGQIVDRCRN [I60C] | -0.088 ± 0.048
RTVITEEFKVPDKMVGFIIGRGGEQISRIQAESGCKIQIASESSGIPERPCVLTGTPESLEQAKRLLGQIVDRCRN [I60L] | -0.119 ± 0.033
RTVITEEFKVPDKMVGFIIGRGGEQISRIQAESGCKIQIASESSGIPENPCVLTGTPESIEQAKRLLGQIVDRCRN [R49N] | -0.155 ± 0.059
RGVITEEFKVPDKMVGFIIGRGGEQISRIQAESGCKIQIASESSGIPERPCVLTGTPESIEQAKRLLGQIVDRCRN [T2G] | 0 ± 0.029
RTVITEEFKVPDKMVGFIIGRGGEQISRIQAESGCKIQIASESSGIPERPCVLTGTPESIEQAKRLLVQIVDRCRN [G68V] | -0.017 ± 0.032
RTVITEEFKVPDKMVGFIIDRGGEQISRIQAESGCKIQIASESSGIPERPCVLTGTPESIEQAKRLLGQIVDRCRN [G20D] | -0.104 ± 0.041
RTVITEEFKVPDKMVGFIIGRGGEQISRIQAESGCKIQKASESSGIPERPCVLTGTPESIEQAKRLLGQIVDRCRN [I39K] | -0.614 ± 0.046
RTVITEHFKVPDKMVGFIIGRGGEQISRIQAESGCKIQIASESSGIPERPCVLTGTPESIEQAKRLLGQIVDRCRN [E7H] | -0.002 ± 0.05
RTVITEEFKVPDKMVGFIIGRGGEQISRIQAESGCKIQIASESKGIPERPCVLTGTPESIEQAKRLLGQIVDRCRN [S44K] | -0.005 ± 0.042
RTVITEEFKVPDKMVGFIIGRGGEQISRIQAESGCKIFIASESSGIPERPCVLTGTPESIEQAKRLLGQIVDRCRN [Q38F] | -0.1 ± 0.098
RTVITEEFKVPDKMVGFIIGRGGEQISRIQAESGCKITIASESSGIPERPCVLTGTPESIEQAKRLLGQIVDRCRN [Q38T] | -0.047 ± 0.044
RTVITEEFKVPDKMVGFIIGRGGEQISRIQAESGCKIQIASESSGIPERPCVLTGTPESIEQAKNLLGQIVDRCRN [R65N] | 0.013 ± 0.059
RTVITEEFKVPDKMVGFIIGRGGEQISRIQAESGCKIQIASESSGIPERPCVLTGTPESIEQAKELLGQIVDRCRN [R65E] | 0.013 ± 0.034
RTVITEEFQVPDKMVGFIIGRGGEQISRIQAESGCKIQIASESSGIPERPCVLTGTPESIEQAKRLLGQIVDRCRN [K9Q] | -0.007 ± 0.038
RTVITEEFKVPDKMVGFIIGRGGEQISRIQAESGCKIQIASESSGIPERPCVLTGTPESIEQAKRLLGQIVDRCRA [N76A] | 0.036 ± 0.055
RTVITEEFKVPDKMVGFIIGRGGEQISRIQAESGCKIQIASESSGIPERPCVLTGTPESIEQAKRLLGQIVDRCRI [N76I] | -0.178 ± 0.086
RTVITEEFKVPDKMVGFIIGRGGEQISRIQAESGCKIQIASESSGIPERPCVLTGTPISIEQAKRLLGQIVDRCRN [E58I] | -0.256 ± 0.082
RTVITEEFKVPDKMVGFIIGRGGEQISRIQAESGCKIQIASESSGIFERPCVLTGTPESIEQAKRLLGQIVDRCRN [P47F] | -0.096 ± 0.044
RTVITEEFKVPDKMVGFIIGRGGEQISRIQAESGCKIQIASESSGISERPCVLTGTPESIEQAKRLLGQIVDRCRN [P47S] | 0.024 ± 0.034
RTVITEEFKVPDKMVGFIIGRGGEQISRIQAESGCKIQIASESSGIKERPCVLTGTPESIEQAKRLLGQIVDRCRN [P47K] | -0.023 ± 0.039
RTVITEEFKVPDKMVGFIIGRGGEQISRIQAESGCKIQIASESSQIPERPCVLTGTPESIEQAKRLLGQIVDRCRN [G45Q] | -0.046 ± 0.038
RTVITEEFKVPDKMVGFIIGRGGEQISRIQAESGCKIQIASESSYIPERPCVLTGTPESIEQAKRLLGQIVDRCRN [G45Y] | -0.168 ± 0.051
